The text below walks through data of the RNAGym collection of RNA variant scans (doi:10.7554/elife.80360).

B1: HDV Ribozyme (parent)
chain: GGCCGGCAUGGUCCCAGCCUCCUCGCUGGCGCCGGCUGGGCAACAUUCCGAGGGGACCGUCCCCUCGGUAAUGGCGAAUGGGACCCA

Variants of B1 are the subject of the data set. Briefly: self-cleavage, relative activity (ratio to wild type); higher = more cleavage; co-transcriptional.
For G34U G68U, the self-cleavage came to 0.0966. In the case of G34U G68C, the self-cleavage came out at 0.322. As to G34U G52U, the self-cleavage is 0.0588. As for G34U G52C, the figure is 0.101; as for G34U G74C, 0.138; as for G34U A77C, 0.0678. Then G34U A77G, with 0.086; and G34U G81U, with 0.18; and G34A G82C, with 0.261. As for G34A U69A, the figure is 0.166; as for G34A U69G, 0.306. For G35A, the self-cleavage was 0.605. Consider G34C C61G, for which the self-cleavage is 0.231. As for G34U U72A, the figure is 0.151. With G34U U72C, the self-cleavage was found to be 0.164. As to G34C C48G, the self-cleavage is 0.162. With C33U G38C, the self-cleavage came to 0.125.

For C33U G38U, the self-cleavage amounted to 0.0978. Then G34U C49G, with 0.166. As for G34U G39A, the figure is 0.174; as for G34A C64G, 0.0963; as for G34A C64A, 0.128. Take G34A C64U: the self-cleavage is 0.133. G34C G80U: the self-cleavage turned out to be 0.203. G34U C62G: the self-cleavage worked out at 0.117. Then G35A A42G, with 0.17; and C33U A42G, with 0.427.

C33U A42C: the self-cleavage came out at 0.259. With C33U A56G, the self-cleavage came out at 0.665.

On to C33U A56C, for which the self-cleavage amounted to 0.658. As for G34A C75G, the figure is 0.203; as for G34A A70C, 0.0941; as for G34U A71U, 0.208. Then G34U A71G, with 0.154; and C33U G74A, with 0.277. As for G34C U69G, the figure is 0.703; as for G34C U69C, 0.249; as for G34U C84A, 0.176.

For G34U C84U, the self-cleavage came out at 0.261.

With G34C A77C, the self-cleavage was 0.17. Turning to G34C A77U, the self-cleavage turned out to be 0.125. As for G34C A77G, the figure is 0.161.

G34A C85A: the self-cleavage is 0.199. As for G34A C85U, the figure is 0.163; as for G35A C44U, 0.188. As for G35A C44G, the figure is 0.0639; as for G35A C44A, 0; as for C33U C63G, 0.698. Then C33U C58G, with 0.929; and C33U C58U, with 0.917; and C33U A78U, with 0.378.

On to G34C G54A, for which the self-cleavage was found to be 0.166. In the case of G34U C64A, the self-cleavage turned out to be 0.268. As to G34U C64G, the self-cleavage is 0.277.

Regarding G35A A77U, the self-cleavage came to 0.253. In the case of G35A A77C, the self-cleavage was determined as 0.131. As for G34A U47C, the figure is 0. G34U G53U: the self-cleavage worked out at 0.223. Take C33U C61G: the self-cleavage is 0.831. Consider C33U C61U, for which the self-cleavage came to 0.918. As for C33U U37A, the figure is 0.17; as for C33U U37G, 0.0462. G34U G67U: the self-cleavage turned out to be 0.231.

G34U G67C: the self-cleavage is 0.22. Take G34U G67A: the self-cleavage was 0.115. Then G34U C41G, with 0.0723; and G34U C41A, with 0.133; and G34C G74A, with 0.0354. For G34C G74C, the self-cleavage came to 0.0875. As for G34C G74U, the self-cleavage came out at 0.136. As for C33U G59A, the figure is 0.897; as for G34C U60C, 0.244; as for G34C U60G, 0.0978. Then C33U C41A, with 0.7; and C33U C41U, with 0.646. Then C33U C36G, with 0.0665.

As for G34A C57G, the self-cleavage was found to be 0.0997. As for G34A C57A, the figure is 0.13.

For G34C G50A, the self-cleavage was determined as 0.287. Regarding C33U G50U, the self-cleavage is 0.92. As for G34U U69G, the figure is 0.0361.

In the case of C33U G82C, the self-cleavage stood at 0.245. With C33U C44U, the self-cleavage stood at 0.543.

In the case of G34U G73C, the self-cleavage turned out to be 0.289. As for G34A G76U, the figure is 0.269. Turning to G34A G76A, the self-cleavage was found to be 0.257. As for C33U G52C, the figure is 0.596; as for G34A C48U, 0.132. On to G34C C36U, for which the self-cleavage turned out to be 0.0332.

For the variant G34A C84G, the self-cleavage stood at 0.104. As for G34A C84U, the figure is 0.142; as for G34C U72A, 0.17. As to G34C U72G, the self-cleavage turned out to be 0.222. As for C33U G81C, the figure is 0.119. For G34U G50A, the self-cleavage turned out to be 0.312. As for G34U G50C, the figure is 0.0906; as for G35A A45G, 0.443; as for G34U G80U, 0.128. As for G35A C36G, the figure is 0.35. As for G35A C36U, the figure is 0.0817; as for C33U U60A, 0.696; as for C33U U60G, 0.935.

For the variant G34C G59U, the self-cleavage amounted to 0.0415. Then G34C G59C, with 0.0811; and G34C A83G, with 0.0959; and G34C A83C, with 0.0898. Consider G35A A83G, for which the self-cleavage amounted to 0.258. As to G35A A83U, the self-cleavage turned out to be 0.507. For the variant G34U C48G, the self-cleavage is 0.151.

For G34U C48A, the self-cleavage came to 0.251. As for G34U C48U, the self-cleavage was 0.112.

Consider C33U C75A, for which the self-cleavage is 0.0923. Take G34A G50U: the self-cleavage came out at 0.187.

As to G34U A51G, the self-cleavage stood at 0.339. G34U A51C: the self-cleavage is 0.0707.

Consider G34C G40U, for which the self-cleavage is 0.151.

G34C U37A: the self-cleavage turned out to be 0.297.

G34C A51G: the self-cleavage was 0.346.

G34C A51C: the self-cleavage came out at 0.107.

For the variant G34C A51U, the self-cleavage is 0.141. Take C33U U47G: the self-cleavage is 0.692. Then C33U U47C, with 0.682; and C33U U47A, with 0.872. With G34C G35A, the self-cleavage came out at 0.115. Take G34C G35U: the self-cleavage is 0.306. On to G34U G59U, for which the self-cleavage came out at 0.229.

For the variant G34A C49U, the self-cleavage is 0.3. As for G34A C49A, the figure is 0.0852. As for G34A A45C, the figure is 0.299; as for G34A A45G, 0.199; as for C33U G55A, 0.972.

As for G34C A70G, the self-cleavage is 0.0898. Then G34U G35C, with 0.154; and G34U G35A, with 0.204.

Regarding C33U G67U, the self-cleavage was 0.816. As to C33U G67C, the self-cleavage stood at 0.771. As for C33U A51U, the figure is 0.848. As for C33U A51C, the figure is 1.3; as for C33U C48U, 0.847; as for C33U C48G, 1.05. On to G34A G35U, for which the self-cleavage turned out to be 0.113. Take G34A G35C: the self-cleavage stood at 0.0378. As for G34A G35A, the figure is 0.145. Then C33U G39C, with 0. As for C33U G39U, the self-cleavage was determined as 0.58.

As for C33U U72G, the self-cleavage was determined as 0.405. As for G35A A87G, the figure is 0.473; as for G35A A87C, 0.444; as for C33U A70C, 0.931.

In the case of C33U A70U, the self-cleavage was 0.755.

As for G34C C58G, the self-cleavage was found to be 0.287.

Consider G34A C63U, for which the self-cleavage came to 0.0656. Turning to G34C C85U, the self-cleavage was 0.277. Then G34A U60G, with 0.237. Regarding C33U A71U, the self-cleavage is 0.65. As for C33U A71C, the figure is 0.374; as for G34A A56C, 0.151; as for C33U U46G, 0.65. Turning to G34A A51G, the self-cleavage came out at 0.0504. As for G34A A51U, the figure is 0.174; as for G34A G40C, 0.0482.

Turning to G34A G40A, the self-cleavage was 0.181. G34C G81U: the self-cleavage came out at 0.0639.

As for G34U U65G, the self-cleavage is 0.146. As for G34U U65C, the figure is 0.197; as for G34C C49G, 0.264. Turning to G34U U47G, the self-cleavage was 0.267.
